In patent publication US20260055155A1, “INCRETIN ANALOG AND USE THEREOF” (SHANGHAI MINWEI BIOTECHNOLOGY CO., LTD, priority 2023, published 2026):
Entries after “also recorded” stand apart in the source; their conditions may differ. Each block holds one compound with its values, some of them ahead of it. Numbered stars: 1 amine (or outer) side, 2 acyl side, 3 side chain; on linkers, the order of the positions; unused ones are H or OH. Square brackets hold non-standard residues; d marks the D form. Side chains are listed from the residue outwards. Peptide text beside a SMILES is read from it. * marks the point of attachment. C20 diacid = O=C(O)CCCCCCCCCCCCCCCCCCC(=O)*; γGlu = O=C(O)[C@H](CCC(=O)[*:2])N[*:1]; AEEA = NCCOCCOCC(=O)O; Aib = CC(C)(N)C(=O)O

Experiments:
[1] = stability of polypeptide in serum (GIP activity read-out with CHOK1-GIPR cells); type: in vitro ADME, cynomolgus monkey; conditions: for Activity ratio (%, Relative to the sample at 0 h): 100 μg/ml in cynomolgus monkey serum, GIP activity
Description: Polypeptide 1 (SEQ ID NO. 1), polypeptide 3 (SEQ ID NO. 3) and control LY3437943 were diluted to 100 μg/ml with cynomolgus monkey serum, divided into 3 pieces with 200 μl/piece, respectively. One sample was placed in a −80° C. refrigerator as a zero reference, and the other two samples were placed in a 37° C. incubator and moved into a −80° C. refrigerator after 24 hours and 72 hours respectively. […] The activity changes of different samples after being placed for different periods of time were compared.

GIP receptor (human) = target: T1, GIP receptor (human) (UniProt P48546); experiment: cell-based or functional assay
T1 sequence (looked up): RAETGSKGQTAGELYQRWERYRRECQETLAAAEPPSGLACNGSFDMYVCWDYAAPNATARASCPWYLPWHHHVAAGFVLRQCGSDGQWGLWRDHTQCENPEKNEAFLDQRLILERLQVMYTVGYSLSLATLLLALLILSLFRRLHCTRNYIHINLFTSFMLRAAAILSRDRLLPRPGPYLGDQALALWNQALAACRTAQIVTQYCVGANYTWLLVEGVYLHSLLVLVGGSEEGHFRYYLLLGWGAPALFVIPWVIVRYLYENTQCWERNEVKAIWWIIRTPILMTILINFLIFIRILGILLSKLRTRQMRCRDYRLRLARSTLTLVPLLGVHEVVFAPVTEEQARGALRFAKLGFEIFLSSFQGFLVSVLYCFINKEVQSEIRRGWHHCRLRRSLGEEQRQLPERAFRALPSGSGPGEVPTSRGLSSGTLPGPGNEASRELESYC

[2] = target: human GLP-1 receptor (human) (UniProt P43220); experiment: cell-based or functional assay
GCG receptor = GCG receptor (UniProt P47871); experiment: cell-based or functional assay

Compound: CC[C@H](C)[C@H](NC(=O)[C@H](CCCCNC(=O)COCCOCCNC(=O)CC[C@H](NC(=O)CCCCCCCCCCCCCCCCCCC(=O)O)C(=O)O)NC(=O)[C@H](CC(=O)O)NC(=O)[C@H](CC(C)C)NC(=O)[C@H](CC(C)C)NC(=O)[C@@H](NC(=O)[C@H](CO)NC(=O)[C@H](Cc1ccc(O)cc1)NC(=O)[C@H](CC(=O)O)NC(=O)[C@H](CO)NC(=O)[C@@H](NC(=O)[C@H](Cc1ccccc1)NC(=O)[C@@H](NC(=O)CNC(=O)[C@H](CCC(N)=O)NC(=O)C(C)(C)NC(=O)[C@@H](N)Cc1c[nH]cn1)[C@@H](C)O)[C@@H](C)O)[C@@H](C)CC)C(=O)N[C@@H](C)C(=O)N[C@@H](C)C(=O)N[C@@H](CCC(N)=O)C(=O)N[C@@H](C)C(=O)N[C@@H](Cc1ccccc1)C(=O)N[C@H](C(=O)N[C@@H](CCC(=O)O)C(=O)N[C@@H](Cc1c[nH]c2ccccc12)C(=O)N[C@@H](CC(C)C)C(=O)N[C@H](C(=O)N[C@@H](C)C(=O)NCC(=O)NCC(=O)N1CCC[C@H]1C(=O)N[C@@H](CO)C(=O)N[C@@H](CO)C(=O)NCC(=O)N[C@@H](C)C(=O)N1CCC[C@H]1C(=O)N1CCC[C@H]1C(=O)N1CCC[C@H]1C(=O)N[C@@H](CO)C(N)=O)[C@@H](C)CC)[C@@H](C)CC [Polypeptide 1] (H-H[Aib]QGTFTSDYSILLDK([AEEA-γGlu-C20 diacid])IAAQAFIEWLIAGGPSSGAPPPS-NH2; N-terminus and C-terminus assumed)
stability in serum (in words) ([1]; cynomolgus monkey serum, 37° C.): higher than that of polypeptide 3; also recorded: significantly improve polypeptide stability
Activity ratio (%, Relative to the sample at 0 h) ([1]; incubation time at 37° C. 0 h (zero reference)): 100%
Activity ratio (%, Relative to the sample at 0 h) ([1]; incubation time at 37° C. 72 h): 67.13%

EC50 (nmol/L), reporter gene in CHO-K1 cells (GIP receptor (human)): 0.059 nmol/L
Compound: GIP (from UniProt P09681 52-93) (ligand)

EC50 (nmol/L), CRE-luciferase reporter in CHO-K1 cells [2]: 1.95 nmol/L
Compound: GLP-1 (from UniProt P01275 92-128) (ligand)

Results of activity in human serum albumin system (GCGR) (GCG receptor): 26
Results of activity in human serum albumin system (GIPR) (GIP receptor (human)): 3.29
Results of activity in human serum albumin system (GLP-1R) [2]: 540
Compound: LY3437943 (peptide)
